Measured values from the nanobody polyreactivity screen of Harvey et al. (2022).

Test: yeast display, Sf9 membrane polyspecificity reagent, FACS + sequencing; frameworks hold sequencing errors
Outline: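 A synthetic nanobody library was expressed on Saccharomyces cerevisiae BJ5465 by galactose induction for 36–48 hours. The library was stained for 1 hour at 4 °C with 10% biotinylated, detergent-solubilized Sf9 membrane reagent and enriched with streptavidin microbeads before FACS. Low and high (top ~1%) gates were set on anti-HA fluorescence for expression and streptavidin fluorescence for reagent binding, and each polyreactivity label reflects the gate of origin.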

| Sequence | polyreactivity (PSR sort gate) |
| --- | --- |
| QVQLVESGGGLVQAGGSLRLSCAASGRILRSYAMGWYRPAPGKERELVAAISWRGGSTYYADSVKGRFTISRDNAKNTVYLQMNSLKPEDTAVYYCAKRSYYPARYDYWGQGTQVTVSS | high polyreactivity |
| QVQLVESGGGLVQAGGSLRLSCAASGRTFYVYTMGWYRQAPGKERELVAGISYSGGSTYYADSVKGRFTISRDNAKNTVYLQMNSLKPEDTAVYYCNRGLAARVGRGDYWGQGTQVTVSS | low polyreactivity |
| QVQLVESGGGLVQAGGSLRLSCAASGSTFDSYARVWYRQAPGKETELVARISIVGSTNYADSVKGRFTISRANAKNTVYLQMNCLKPDDTAVYYCAADRDWQYSFRHSVYGYDYDYWGQGTLVTVSS | low polyreactivity |
| QVQIVESGGGLVQAGGSLRLSCAASGSIFQFYAMGWSRQAPGKERELVAVITTSGVSTYYADSVKGRFTISRDNAKYTVYLQMNSLKPEDTAVYYCAADDYYLAGDYWGQGTQVTVSS | low polyreactivity |
| QVQLVESGGGLVQAGGSLRLSCAASGFTFNANAMGWYRQAPGKERELVAVITRSGGRTYYADSVKGRFTISRDNAKNTVYLQMNSLKPEDTEVYYCAKECPSRVYQGTDSASDYWGQGTQVTVSS | high polyreactivity |
| QVQLVESGGGLVQAGGRLRLTCAASGFTFGRYAMGWYRQAPGKERDLVADITSGSGGTYYADSVKGRFTISRATAKNSVYLQMNSLKPEDTAVYYCATGSRSRGALRYAHFDFWGQGTQVSVSS | high polyreactivity |
| QVQLLESGGGIVQAGGSLRLSCAASGSIFRYYAMGWYRQAPGKEREFVASITYRGGRTYYADSVKGRFTISRDNAKNTVYLQMNSLKPEDTAVYYCAARTRAGAWTSKYHDYWGQGTQVTVSS | high polyreactivity |
| QVQLVESGGGLVQAGGSLRLSCAASGSSFGGYAMGWYRQAPGKERELVARITDRGGSTDYADSVKGRFTISRDNAKNTVYLQKNSLKPEDTAGSYCAKRGDRYEKRPRDYWGQGTQVTVSS | low polyreactivity |
| QVQLVESGGGLVQAGGSLRLSCAASGITFVTYAMGWYRQAPGKERELVAAITIGGRTNYADSVKGRFTISRDNAKNTVYLQMNSLKPEDTAVYYCNAAPVYDVTRLFYDDMGYWGQGTQVTVSS | low polyreactivity |
| QVQLVESGRGLVQAGGSLRLSCAASGFTIDYYAIAWYRQAPGKERELVADISSDGSTYADSVKGRFTISRDNAKNTVYLQMNSLKPEDTAVYYCNAYLSKYFRYDYWGQGTQVTVSS | high polyreactivity |
| QVQLVESGGGLVQAGGSLRLSCAASGRIFYWNAMGWYRQAPGKERELVAAITYSTGSTYYADSVKGRFTISRDNAKNTVYLQMNSLKPEDTAVYYCAAEGPRGSWWALYDYWGQGTQVTVSS | low polyreactivity |
| QVQLVESGGGLVQAGGRLRLSCAASGRTFATNTMGWYIQAPGKEREFVAAISRGGVSTSYADSVKGRFTISRDNAKNTVYLQMNSLKPEDTAVYYCAANHYGFNRNHRHTYVYWGQGTQVTVSS | high polyreactivity |
| QVQLVESGGGLVQAGGSLRLSCAASGSTFPVYAMGWYRQAPGKERELVASISSGGSTYYADSVKGRFTISRDNAKNTVYLQMNSLKPEDTAVYYCAKDPWVESFVIYDYWGQGTQVTVSS | low polyreactivity |
| QVQLVESGGGLVQAGGSLRLSSAANGMIYVSYAMGWYRQAPGKERELVATITRSGGSTYYADSVKGRFTISRDNAKNTVYLQMNSLKPEDTAVYYCARYWRTSGVRMDYWGQGTQVTVSS | high polyreactivity |
| QVQLVESGGGLVQAGGSLRLSCAASGRIFLPYAMGWYRQAPGKERELVAAIDTNGGSTYYADSVKGRFTISRDNAKNTVYLQMNSLKPEDSAVYYCAAEVYDYTYVVTFLYDYWGQGTQVTVSS | high polyreactivity |
| QVQLVESGGGLVQAGGSLRLSCAASGRTFRYNGMGWYRQAPGKERELVAAITLRDGRTYYADSVKGRITISRDNPKNTVNIQMNSLIPEHTAVYYCALEYWVVNAQGNDYWGQGTQVSVSS | high polyreactivity |
| QVQLVESGGGLVQAGGSLRLSCAASGRTFYYNAMGWYRQAPGKEREMVADINWSGVRTYYADSVKGRFTISRDNAKNTVYLQMNSLKPEDTAAYYCAAERLLYKHYEEDYWGQGTQVTVSS | low polyreactivity |
| QVQLVESGGGLVQAGGSLRLSCAASGRTFISYAMGWYRQAPGKERELVAAISSSGGSTYYADSVKGRFTISRDNAKNTVYLQMNSLIPEDTAVYYCNADSSASTYTFPFDYWGQGTQVTVSS | low polyreactivity |
| QVQLVESGGGLVQAGGSLRLSCAASGSTFYRYAMGWYRQAPGKERELVAAISSDGTTYYADSVKGRFTISRDNAKNTVYLQMNCLNPVDTAVYYCAKERSRYYPYDYWGQGTQVTVSS | high polyreactivity |
| QVQLEESGGGLVQAGGSLRLSCAASGLIYSSYAMGWYRQAPGKERELVAAIRSGGNTNYADSVKGRFTISRDNAKNTVYLQMNSLKPEDTAVYYCADGTYSRPYYRTFDHWGQGTQVTVSS | low polyreactivity |
| QVQLVESGGGLVQAGGSLRLSCAASGSTFWFYALGWYRQAPGKERELVAAISSSGTTTYYADSVKGRFTISRDNAKNTVYLQINSLKPEDTAVSYCAAQYRGSYRTTYDYWGQCTQVTVSS | low polyreactivity |

| Sequence | polyreactivity (PSR sort gate) |
| --- | --- |
| QVPLVESGGGLVQAGGSLRLSCAASGRIFGYYARGWYRQAPGKDRELVASIRRGTRTNYADSVKGRFTISRDNAKNTVYLQMNSLKPEDTAVYYGAATRFQFTTTPWYDYWGQGTQVTVSS | high polyreactivity |
| QVQLVESGGGLVQAGGSLRLSCAASGSTFDVYVMGWYRQAPGKERELVAAISSGDDTNYADSVKGRFTISRDNAKNTVYLQMNSLKPEDTAVYYCAAAYYYYVSGWFDYWGQGTQVTVSS | low polyreactivity |
| QDQHVESGGGLDQAGGSLRLSCAASGRTIRSYAMGGYRPAPRKESELVAAISSRGGNTYYADSVKGRFTISRDNAKYTVYLQMNSLKPEDTAVYYSNRVRYGVPLIVGDDYWGQGTQVTVSS | high polyreactivity |
| QVQLVESGGGLVQAGGSLRLSCAASGRIFRVYTMGWYRPAPGKESELVAAISRGGSTNYADSVKGRFTISRDNAKNTVYLQMNSLKPEDTAVYYCAARYPNLRRRWYYYWGQGTQVTVSS | high polyreactivity |
| QVQLVESGGGLVQAGGSLRLSCAASGYTLTPYTMGWYRQAPGKERELVAAINRSGGSTYYADSVKGRFTISRDNAKNTVYLQMNSLKPEDTAVYYCAAYGYYNFGYYYWGQGTQVTVSS | high polyreactivity |
| QVQLVESGGGLVQAGGSLRLSCAASGFTFRNYAMGWYRQAPGKEREFVAAISFSGGRTYYADSVKGRFTISRDNAKNTVYLQMNSLKPEDTAVYYCAKKSYSKYDYWGQGTQVTVSS | low polyreactivity |
| QVQLVESGGGLVQAGGSLRLSCAASGFTFAPNAMGWYRPAPGKEWELVAAISSASSTYYADSVKGRFTISRDNAKYNVYLQMKSLLPEDTAVYYCNAYYWFGPGRDYWGQGTQVTVSS | high polyreactivity |
| QVQLVESGGGLVQAGGSLRLSCAASGSIFGNAMGWYRQAPGKERELVAAITRGVSTYYADSVKGRFTISRDNAKNTVYLQMNSLKPEDTAVYYCNKTYVRGVHGVYLPITSYDYWGQGTQVTVSS | low polyreactivity |
| QVQLLESGGGLVQAGGSLRLSCAASGGTFYSYAMGWYRQAPGKERELVATITRRSGSTYYADSVKGRFTISRDNAKNTVYLQMNSLKPEDTAVYYCAATKYKLLFIHFRYDYWGQGTQVTVSS | high polyreactivity |
| QVQLVESGGGLVQAGGSLRLSCADSGITFYEFGMGWYRQAPGKERELVAAITTDGRTNYADSVKGRFTISRDNATNTVYLQMNILKPEDTAVYYCAVVHYFWGFYSVDYWGQGTQETVSS | high polyreactivity |
| QVQLVESGGGLVQAGGSLRLSCAASGSIFWGYAMGWYRPAPGKERELVATIRNRGGSTYYADSVKGRFTISRDNAKNTVYLQMNSLKPEDTAVYYCAAVSYRQYYGWGNYWGQGTQVTVSS | low polyreactivity |
| QVQLVESGGGLVQAGGSLRLSCAASGSIFSEYAMGWYRQAPGKERELVAAINDGGGSTYYADSVKGRFTISRDNAKNTVYLQMNSLKPEDTAVYYCAAETVRWWWLYDYWGQGTQVTVSS | high polyreactivity |
| QVQLEESGGGLVQAGGSHRLSCAASGRTFGAYAMGWYLQAPGKEREVVAAITYRGASTYYADSVKGRFTISRDNAMYTVYLQMNSLITEDTAVYSCAAEGSIKYFVGYNWGYNYWGQGSQVTVSS | low polyreactivity |
| QVQLVESGGGLVQAGGSLRLSCAASGSIFGYYAMGWYRQAPGKERELVAAIRWSDGSTYYADSVKGRFTISRDNAKNTVYLQMNSLKPEDTAVYYCAAETGWLYDYWGQGTQVTVSS | high polyreactivity |
| QVQLVESGGGLVQAGGSLRLSCAASGRIFVRNAMGWYRQAPGKEREFVAAISRSGGSTYYADSVKGRFTISRDNAKNTVYLQMNSLKPEDTAVYYCAADYPKTYTSKFNYWGQGTQVTVSS | high polyreactivity |
| QVQLVESGGGLVQAGGSLRLSCAASGLTFKSYAMGWYRQAPGKERELVAAISWRGGRTYYADSVKGRFTISRDNAKNTVYLQMNSLKPEDTAVYYCNARSQQWWLSRYNYWGQGSQVTVSS | high polyreactivity |
| QVQLVESGGGLVQAGGSLRLSCAASGSTFPVNAMGWYRQAPGKERELVARIRGSGGSTYYADSVKGRFTISRDNAKNTVYLQMKSLKPEDTAVYYCAARYIGYSSYKYDYWGQGTQVTVSS | high polyreactivity |
| QVQLVESGGGLVQAGGSLRLSCAASGSTFGVNAMGWYRQAPGKEREFVAAITSSSGSTYYADSVKGRFTISRDNAKNTVYLQMNSLKPEDTAVYYCNKRYIQLYDYWGQGTQVTVSS | low polyreactivity |
| QVQLVESGGGLVQAGGSLRLSCAASGLTFYYYVMGWYRQAPGKERELVAAISYSGGRTYYADSVKGRFTISRDNAKNTVYFQMNSLKPEDTEVYYCAAQSRYGGKFYYWGQGTQVTVSS | high polyreactivity |
| QVQLVESGGGLVQAGGSLRLSCAASGFILGRYAMGWYRQAPGKERELVAAISIGGRTNYADSVKGRFTISRDNAKITVYFQMNSLKPEDTAVYYCATSFAVLLSQVDYWGQGTQVTVSS | low polyreactivity |
